By Kd is commonly meant the equilibrium constant for the complex coming apart. Read a high Kd as weaker binding. Broadly, the koff is a measure of how fast the partners let go of each other. The kon is the second-order rate constant of association. A higher kon goes with faster complex formation. For orientation: EC50 (read off the curve) means the concentration needed to bring the measured effect to its halfway point. A high value points to weaker potency. By EC50 is commonly meant the concentration that produces a half-maximal response. Higher therefore signals weaker potency.

The target in assay [1] is T1, MusROR1-His (mouse ROR1 ECD AA30-406 with C-terminal His tag) (mouse, UniProt Q9Z139 30-406).
T1 construct: range 30-406; Expressed in HEK293; also called mouse ROR1 antigen protein; not shown: C-terminal His tag
The assay can be described thus: ELISA, MusROR1-His coated at 2 µg/mL, goat anti-human Fc-HRP, OD450. As for the experimental part:
(§1) 96-well ELISA plate was coated with 2 μg/mL MusROR1-His (30 μL/well) at 4° C. overnight. The next day, the plate was washed three times with PBST and then blocked with 5% skim milk for 2 h. […] After washing with PBST for three times, the secondary antibody Goat-anti-human Fc-HRP (abcam, ab97225) was added and incubated for 1 h. After incubation, the plate was washed with PBST for 6 times and TMB (SurModics, TMBS-1000-01) was added for color development. According to the color development results, 2 M HCl was added to terminate the reaction, and the data were read at OD450 using a microplate reader (Molecular Devices, SpecterMax 190).
For orientation: In an ELISA, binding on a coated surface is turned into a signal by an enzyme label.

Assay [2] has as its target T2, huROR1-His (human ROR1 ECD AA30-406 with C-terminal His tag, made in house) (human, UniProt Q01973 30-406).
T2 construct: range 30-406; Expressed in HEK293; also called antigen protein huROR1-His; not shown: C-terminal His tag
The assay can be described thus: Biacore T200 SPR; huROR1-His amine-coupled (~75 RU), antibody 4 and 20 nM as analyte, 1:1 Langmuir fit. As for the experimental part: Protein coupling: The huROR1-His protein produced in Example 1.2 was diluted to 5.6 μg/mL with NaAc buffer, pH 5.0, the flow rate was set to 10 μL/min, the chip activation time was set to the default value of 420 s with a mixture of 1-ethyl-(3-dimethylaminopropyl)carbodiimide (EDC) and N-hydroxysuccinimide (NHS), and the antigen protein huROR1-His was fixed to a level of about 75 RU using a coupling mode with a preset coupling amount, and the activated groups that were not bound to the test sample were blocked with ethanolamine.
Sample test conditions: PBS buffer (pH 7.4) containing 0.05% Tween-20 was used as the running buffer, and the running buffer was used as the control test sample. A series of antibody concentrations (4 nM, 20 nM) were set. During sample analysis, the flow rate was set to 30 μL/min, the binding time was 120 s, and the dissociation time was 360 s. After the dissociation was completed, 10 mM Gly-HCl (pH 2.0) was used for regeneration for 20 s to completely remove the antibody bound to the ligand.
Parameter fitting: The experiment was run in multiple cycles, with the response signal taking the analysis time as the horizontal axis and the response value as the vertical axis. After double reference subtraction, the obtained data were fitted by BiAcore T200 analysis software. The fitting model adopted was 1:1 Langmuir binding model, and Affinity metrics such as the binding dissociation constant were determined.
For orientation: SPR reads the build-up and loss of mass on a sensor chip optically.

Assay [3] deals with T2, huROR1-His (human ROR1 ECD AA30-406 …). Kind of assay: Gator (BLI) Advanced Kinetics; antibody 30 nM, huROR1-His 480-7.5 nM. How it is done: First, Q buffer was prepared with PBS (10 mM pH7.4) (IgG-free, purchased from Jackson ImmunoResearch Lab)+0.02% Tween 20 (purchased from thermo)+0.2% BSA (purchased from source culture), and the stock solution of the test antibody was diluted with the prepared Q buffer to a working solution with a final concentration of 30 nM, the stock solution of the antigen protein huROR1-His was prepared with Q buffer into a working solution with multiple dilutions (480, 240, 120, 60, 30, 15, 7.5 nM), and detection and analysis was then performed with Gator instrument and its accompanying software, selecting the Advanced Kinetics experimental mode is used.

Assay [4] has as its target T3, human ROR1 on cells (full-length human ROR1 on huROR1-HEK293 cells; human ROR1 on A549 and HT-29 tumor cells) (human, UniProt Q01973 30-937).
T3 construct: whole, on cells; also called hROR1-HEK293T; A549 tumor cells
Kind of assay: flow cytometry (FACS) on A549 tumor cells, anti-human IgG-Fc secondary antibody, MFI. As for the experimental part:
(§2) In this example, the binding activity of the antibody was evaluated using two types of cells, huROR1-HEK293 cells over-expressing human ROR1 and A549 tumor cells.
(§3) The specific method was as follows: huROR1-HEK293 cells or A549 cells in the logarithmic growth phase were prepared to a single-cell suspension, the density was adjusted to 1×10⁶ cells/mL, then 100 μL/well cells were added to a 96-well round-bottom plate, centrifuged at 4° C., 300 g, and the supernatant was removed. […] After the incubation, the cell mixture was washed three times and then 100 μL of 1:300 diluted secondary antibody Goat F(ab′)₂ Anti-Human IgG-Fc (abcam, ab98596) was added. The mixture was incubated at 4° C. in the dark for 30 min. After washing three times, the cells were detected by flow cytometry (Beckman, CytoFLEX AOO-1-1102).
(In general: A flow cytometer gives signals particle by particle.)

Assay [5] concerns the target T4, huROR2-His (human ROR2 ECD AA34-403 with C-terminal His tag) (human, UniProt Q01974 34-403).
T4 construct: range 34-403; Expressed in HEK293; also called human ROR2 antigen protein; not shown: C-terminal His tag
The assay can be described thus: ELISA, huROR2-His coated at 2 µg/mL, goat anti-human Fc-HRP, OD450. As for the experimental part:
as §1, with “huROR2-His” for “MusROR1-His”, “TMBS-1000-0)” for “TMBS-1000-01)”

Assay [6] has as its target T2, huROR1-His (human ROR1 ECD AA30-406 …). The assay can be described thus: ELISA, huROR1-His coated plate, goat anti-human Fc-HRP, OD450.
For assay [7] the target is unchanged. The assay can be described thus: ELISA, huROR1-His coated at 2 µg/mL, goat anti-human Fc-HRP, OD450. As for the experimental part: as §1, with “huROR1-His” for “MusROR1-His”
Assay [8] shares this target. The assay can be described thus: ELISA, huROR1-His coated plate, goat anti-human Fc-HRP, OD450. The source holds these as a separate data set.
Assay [9] shares this target. The description is as above. This is another data set of the same source.
Assay [10] deals with T3, human ROR1 on cells (full-length human …). Kind of assay: flow cytometry (FACS) on huROR1-HEK293 cells, anti-human IgG-Fc secondary antibody, MFI. As for the experimental part: as §2, §3

T2 sequence (Q01973 30-406 limits assumed): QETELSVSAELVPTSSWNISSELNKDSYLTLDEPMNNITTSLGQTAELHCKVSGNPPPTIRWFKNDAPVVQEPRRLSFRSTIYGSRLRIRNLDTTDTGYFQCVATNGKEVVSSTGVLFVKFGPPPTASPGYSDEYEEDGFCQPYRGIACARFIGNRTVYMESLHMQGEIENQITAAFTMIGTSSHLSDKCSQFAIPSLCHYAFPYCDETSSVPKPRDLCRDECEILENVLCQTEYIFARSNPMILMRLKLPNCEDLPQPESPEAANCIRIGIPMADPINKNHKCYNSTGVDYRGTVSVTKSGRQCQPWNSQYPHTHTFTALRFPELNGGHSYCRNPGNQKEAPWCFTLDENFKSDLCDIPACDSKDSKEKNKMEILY
T3 sequence (Q01973 30-937): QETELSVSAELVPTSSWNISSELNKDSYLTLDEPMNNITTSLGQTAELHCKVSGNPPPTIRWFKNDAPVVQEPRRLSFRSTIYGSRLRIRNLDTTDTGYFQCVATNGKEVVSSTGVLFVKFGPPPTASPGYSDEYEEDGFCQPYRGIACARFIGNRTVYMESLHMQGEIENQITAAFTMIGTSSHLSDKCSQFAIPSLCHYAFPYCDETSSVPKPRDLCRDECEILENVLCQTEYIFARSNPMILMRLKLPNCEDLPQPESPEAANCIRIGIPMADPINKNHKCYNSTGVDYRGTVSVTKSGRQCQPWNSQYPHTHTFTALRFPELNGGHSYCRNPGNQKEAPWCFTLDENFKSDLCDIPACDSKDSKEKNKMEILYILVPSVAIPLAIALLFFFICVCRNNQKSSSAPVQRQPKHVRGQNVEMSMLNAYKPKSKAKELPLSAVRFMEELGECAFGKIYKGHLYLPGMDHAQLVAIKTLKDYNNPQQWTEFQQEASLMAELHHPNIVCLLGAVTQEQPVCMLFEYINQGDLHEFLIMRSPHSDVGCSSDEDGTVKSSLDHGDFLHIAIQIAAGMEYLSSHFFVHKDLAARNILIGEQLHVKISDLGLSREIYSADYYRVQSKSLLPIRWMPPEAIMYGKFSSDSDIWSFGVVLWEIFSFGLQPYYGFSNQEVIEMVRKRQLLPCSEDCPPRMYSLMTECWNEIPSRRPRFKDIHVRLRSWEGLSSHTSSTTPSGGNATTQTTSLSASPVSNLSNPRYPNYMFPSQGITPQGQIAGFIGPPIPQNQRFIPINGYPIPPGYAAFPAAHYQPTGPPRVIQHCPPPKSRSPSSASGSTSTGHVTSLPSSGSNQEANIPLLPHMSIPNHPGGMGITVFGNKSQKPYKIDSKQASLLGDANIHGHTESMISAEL
T1 sequence (Q9Z139 30-406 limits assumed): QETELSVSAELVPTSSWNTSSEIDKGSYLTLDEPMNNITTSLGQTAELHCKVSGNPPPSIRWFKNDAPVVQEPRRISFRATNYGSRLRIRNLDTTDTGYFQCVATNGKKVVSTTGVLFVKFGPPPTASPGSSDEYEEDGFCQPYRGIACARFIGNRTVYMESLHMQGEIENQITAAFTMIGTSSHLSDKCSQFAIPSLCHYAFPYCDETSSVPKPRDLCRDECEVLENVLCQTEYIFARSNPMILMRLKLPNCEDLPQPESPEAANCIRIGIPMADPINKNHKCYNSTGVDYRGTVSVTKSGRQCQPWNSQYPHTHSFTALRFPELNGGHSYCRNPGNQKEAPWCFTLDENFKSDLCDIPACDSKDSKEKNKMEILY
T4 sequence (Q01974 34-403 limits assumed): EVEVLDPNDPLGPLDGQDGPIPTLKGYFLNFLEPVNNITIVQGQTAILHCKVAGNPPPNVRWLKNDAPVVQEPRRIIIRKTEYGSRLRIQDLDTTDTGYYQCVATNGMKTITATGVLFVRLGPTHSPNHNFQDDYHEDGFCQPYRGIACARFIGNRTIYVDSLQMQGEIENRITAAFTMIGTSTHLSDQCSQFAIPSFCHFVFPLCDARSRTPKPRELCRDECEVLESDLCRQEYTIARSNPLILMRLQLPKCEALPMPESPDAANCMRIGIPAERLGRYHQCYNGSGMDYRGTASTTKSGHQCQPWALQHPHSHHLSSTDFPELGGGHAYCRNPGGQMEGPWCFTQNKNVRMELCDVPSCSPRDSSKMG

B1: B31 (chimeric antibody) (antibody, human IgG1, kappa, V domains shown)
VH: EVMLVESGGGLVKPGGSLKLSCAASGFTFSRYAMSWVRQTPEKRLEWVASISRGGSTYYPDSVKGRFTISRDNARNILYLQMSSLRSEDTAMYYCASYFGNYDAMDYWGQGTSVTVSS
VL: DIQMNQSPSSMYASLGERVTITCKASQDINNYVSWFQQKPGKSPKTLIYRANRLVDGVPSRFSGSGSGQDYSFTISSLEYEDMGIYYCLQFDEFPYTFGGGTKLEIKR
notes: ExpiCHO expression
As to B1, the binding result in assay [1] and in [5] was “no binding (tested: 1 µg/mL)” in each case. Moreover, the Kd in assay [2] turned out to be 1.25 nM; in [3] it was 5.67 nM. Moreover, the koff in assay [2] worked out at 0.000817 s⁻¹; in [3], 0.00217 s⁻¹. In addition, the figures for the kon in assay [2] and in assay [3] were 653000 M⁻¹ s⁻¹ and 383000 M⁻¹ s⁻¹, respectively. Besides, in assay [2], the “t 1/2” value was determined as 14.1 min. The “EC50 (read off the curve)” value in assay [4] was about 5 ng/mL; in assay [10], about 80 ng/mL. Also, the EC50 in [6] amounted to 1.63 ng/mL; in assay [7], 5.49 ng/mL; in assay [8] it was 1.92 ng/mL; in [9] it was 2.12 ng/mL.

The values above are taken from patent publication US20250177546A1 (SANYOU BIOPHARMACEUTICALS, published 2025).
